Data as given in IntAct's records for PubMed 21151104.

B1: T-box transcription factor TBX21 (Mus musculus), Q9JKD8 (parent)
chain: MGIVEPGCGDMLTGTEPMPSDEGRGPGADQQHRFFYPEPGAQDPTDRRAGSSLGTPYSGGALVPAAPGRFLGSFAYPPRAQVAGFPGPGEFFPPPAGAEGYPPVDGYPAPDPRAGLYPGPREDYALPAGLEVSGKLRVALSNHLLWSKFNQHQTEMIITKQGRRMFPFLSFTVAGLEPTSHYRMFVDVVLVDQHHWRYQSGKWVQCGKAEGSMPGNRLYVHPDSPNTGAHWMRQEVSFGKLKLTNNKGASNNVTQMIVLQSLHKYQPRLHIVEVNDGEPEAACSASNTHVFTFQETQFIAVTAYQNAEITQLKIDNNPFAKGFRENFESMYASVDTSVPSPPGPNCQLLGGDPFSPLLSNQYPVPSRFYPDLPGQPKDMISQPYWLGTPREHSYEAEFRAVSMKPTLLPSAPGPTVPYYRGQDVLAPGAGWPVAPQYPPKMSPAGWFRPMRTLPMDPGLGSSEEQGSSPSLWPEVTSLQPEPSDSGLGEGDTKRRRISPYPSSGDSSSPAGAPSPFDKETEGQFYNYFPN

Variants of: B1
Conditions: with runx1_mouse Runx1, Q03347
runx1_mouse Runx1, Q03347, sequence (Q03347 whole entry): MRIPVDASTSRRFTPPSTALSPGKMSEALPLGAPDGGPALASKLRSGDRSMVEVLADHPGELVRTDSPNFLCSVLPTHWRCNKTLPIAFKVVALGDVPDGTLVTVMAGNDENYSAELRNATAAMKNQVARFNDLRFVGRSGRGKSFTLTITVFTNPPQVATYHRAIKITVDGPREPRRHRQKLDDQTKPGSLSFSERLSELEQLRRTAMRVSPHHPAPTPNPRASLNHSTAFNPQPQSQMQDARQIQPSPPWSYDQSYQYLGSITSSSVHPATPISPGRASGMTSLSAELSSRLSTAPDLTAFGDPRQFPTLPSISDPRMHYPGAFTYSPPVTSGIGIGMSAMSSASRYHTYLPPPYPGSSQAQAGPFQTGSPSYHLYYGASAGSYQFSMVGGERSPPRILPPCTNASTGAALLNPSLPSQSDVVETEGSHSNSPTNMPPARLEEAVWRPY

| effect of a mutation on the interaction | Variant |
| --- | --- |
| disrupting interaction | MGIVEPGCGDMLTGTEPMPSDEGRGPGADQQHRFFYPEPGAQDPTDRRAGSSLGTPYSGGALVPAAPGRFLGSFAYPPRAQVAGFPGPGEFFPPPAGAEGYPPVDGYPAPDPRAGLYPGPREDYALPAGLEVSGKLRVALSNHLLWSKFNQHQTEMIITKQGRRMFPFLSFTVAGLEPTSHYRMFVDVVLVDQHHWRYQSGKWVQCGKAEGSMPGNRLYVHPDSPNTGAHWMRQEVSFGKLKLTNNKGASNNVTQMIVLQSLHKYQPRLHIVEVNDGEPEAACSASNTHVFTFQETQFIAVTAFQNAEITQLKIDNNPFAKGFRENFESMYASVDTSVPSPPGPNCQLLGGDPFSPLLSNQYPVPSRFYPDLPGQPKDMISQPYWLGTPREHSYEAEFRAVSMKPTLLPSAPGPTVPYYRGQDVLAPGAGWPVAPQYPPKMSPAGWFRPMRTLPMDPGLGSSEEQGSSPSLWPEVTSLQPEPSDSGLGEGDTKRRRISPYPSSGDSSSPAGAPSPFDKETEGQFYNYFPN [Y304F] |
